B1: SnAP-body variant 1 (anti-CD33) (antibody, human IgG1, kappa)
heavy: not shown
light: QIVLTQSPAIMSASPGEKVTITCSASSSISYMHWFQQRTNGSPRLWIYTTSNLASGVPARFSGSGSGTSYSLTISRMEAEDEADYYCHQRSTYPLTFGAGTKLELKRTVAAPSVFIFPPSDEQLKSGTASVVCLLNNFYPREAKVQWKVDNALQSGNSQESVTEQDSKDSTYSLSSTLTLSKADYEKHKVYACEVTHQGLSSPVTKSFNRGEC
notes: also called self-crosslinking antibody; Anti-CD33 SnAP-body variant 1
B2: SnAP-body variant 2 (anti-CD33) (antibody, human IgG1, kappa)
heavy: not shown
light: B1 light
notes: also called self-crosslinking antibody; Anti-CD33 SnAP-body variant 2
B3: control antibody (meditope-enabled gemtuzumab IgG1 without meditope or linker) (antibody)
heavy: not shown
light: B1 light
notes: IgG1; also called control gemtuzumab antibody; gemtuzumab control antibody
B4: SnAP-body variant 3 (anti-CD33) (antibody, human IgG1, kappa)
heavy: not shown
light: B1 light
notes: also called self-crosslinking antibody

How the values were obtained:
[1] = target: the molecule itself; experiment: size-exclusion chromatography; self-crosslinking
[2] = target: the molecule itself; experiment: size-exclusion chromatography; self-association

Protein	binding result [1]	binding result [2]
B1	binds	–
B2	binds	–
B3	–	no binding
B4	binds	–
